Literature values, collected in article PMC2957019 (Journal of labelled compounds & radiopharmaceuticals, 2009).
Where no end group is shown, it is not given here.

Settings: incubation in serum

In the case of “^125I-FROP-1: 12-amino acid synthetic peptide radiolabeled with iodine (EDYELMDLLAYL), selected by phage display for targeting thyroid carcinoma cells (also: 125I radiolabel)”, the “time to degradation in serum” value is listed as at most 30 min.
